The text below walks through data of article PMC10182041 (2023).

The term Kd denotes the free concentration of one partner at which half of the binding sites on the other are occupied at equilibrium, for simple one-to-one binding. A higher Kd goes with lower affinity.

The target of assay [1] is T1, Msi3, the sole Hsp110 of Candida albicans (Candida albicans, UniProt Q96VB9 1-701).
T1 chain: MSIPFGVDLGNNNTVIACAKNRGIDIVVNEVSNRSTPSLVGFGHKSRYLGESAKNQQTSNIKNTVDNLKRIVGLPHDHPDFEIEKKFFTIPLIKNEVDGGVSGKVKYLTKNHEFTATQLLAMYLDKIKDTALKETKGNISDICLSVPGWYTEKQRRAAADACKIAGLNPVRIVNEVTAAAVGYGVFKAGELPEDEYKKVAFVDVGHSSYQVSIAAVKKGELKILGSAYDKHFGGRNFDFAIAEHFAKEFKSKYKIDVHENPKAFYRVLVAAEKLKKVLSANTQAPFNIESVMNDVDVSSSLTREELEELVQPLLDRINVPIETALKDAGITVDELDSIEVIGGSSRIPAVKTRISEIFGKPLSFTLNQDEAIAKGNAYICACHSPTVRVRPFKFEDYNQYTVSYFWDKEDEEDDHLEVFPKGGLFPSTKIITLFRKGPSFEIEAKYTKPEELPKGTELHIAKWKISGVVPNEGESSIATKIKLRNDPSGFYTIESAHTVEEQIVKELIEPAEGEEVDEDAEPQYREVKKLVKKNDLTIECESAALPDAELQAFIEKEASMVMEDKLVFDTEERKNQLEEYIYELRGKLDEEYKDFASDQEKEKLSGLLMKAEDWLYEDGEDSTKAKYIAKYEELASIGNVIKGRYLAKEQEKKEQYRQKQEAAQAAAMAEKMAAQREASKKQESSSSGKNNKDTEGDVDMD
The experiment in a line: FP; +2H (100 µM).

Assay [2] addresses T1, Msi3, the sole Hsp110 of Candida …. As to the kind of experiment: FP.

Where no end group is shown, it is not given here.

B1: TRP2-181 peptide labeled with a fluorescein at the N-terminus (peptide)
chain: fluorescein-VYDFFVWL
B1: the figures for the dissociation constant (Kd) in assay [1] and in assay [2] were 5.45 µM and 0.65 µM, respectively.
